Reference: publication PMC13083859

Biological target: human muscarinic M3 receptor with C-terminal mCitrine (M3-mCit), wild type (human) (UniProt P20309)
Assay: FRET or BRET; single-cell FRET between receptor-mCitrine and mTurq-Gγ2 of the co-expressed heterotrimer (Gαo or Gαq, Gβ1, Gγ2) in HEK293T cells permeabilized with 0.05% saponin for 2 min (GTP depletion), PTX-A co-expressed; room temperature; internal buffer pH 7.35; complex induced by 10 µM acetylcholine, its stability after wash-out quantified as area under the curve (AUC); complete dissociation by 1 µM GTPγS

Chain of UniProt P20309 (P20309 whole entry): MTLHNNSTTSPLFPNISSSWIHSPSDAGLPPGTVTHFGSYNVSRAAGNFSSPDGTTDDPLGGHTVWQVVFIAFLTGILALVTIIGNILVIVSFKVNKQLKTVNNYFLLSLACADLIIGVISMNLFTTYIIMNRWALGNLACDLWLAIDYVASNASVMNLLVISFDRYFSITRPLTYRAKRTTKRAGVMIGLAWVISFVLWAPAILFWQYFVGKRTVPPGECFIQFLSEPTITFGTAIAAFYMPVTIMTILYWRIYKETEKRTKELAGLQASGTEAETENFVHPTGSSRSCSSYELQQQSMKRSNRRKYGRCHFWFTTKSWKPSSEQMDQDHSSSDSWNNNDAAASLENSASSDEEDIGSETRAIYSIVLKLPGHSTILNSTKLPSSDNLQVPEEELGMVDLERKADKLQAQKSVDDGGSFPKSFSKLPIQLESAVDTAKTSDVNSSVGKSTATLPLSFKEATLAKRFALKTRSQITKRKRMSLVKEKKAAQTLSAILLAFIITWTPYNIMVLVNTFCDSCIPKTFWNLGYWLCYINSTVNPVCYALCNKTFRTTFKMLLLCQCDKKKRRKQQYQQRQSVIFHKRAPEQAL

AUC (area under the FRET curve after agonist wash-out)	Substance
30 a.u.	Go heterotrimer: PTX-insensitive Gαo, Gβ1-wt and mTurq-Gγ2 (from UniProt P09471 1-354; P62873 1-340; P59768 1-71) (complex)
106 a.u.	Gq heterotrimer: Gαq, Gβ1-wt and mTurq-Gγ2 (from UniProt P50148 1-359; P62873 1-340; P59768 1-71) (complex; other documents disagree on this pair)
